B1: Protein S100-G, residues 1 to 79; numbered along this chain, P02633 (parent)
chain: MSAKKSPEELKGIFEKYAAKEGDPNQLSKEELKLLLQTEFPSLLKGPSTLDELFEELDKNGDGEVSFEEFQVLVKKISQ

Variants of: B1
Assay: abundance fitness (aPCA) (normalised: wild type 0, dead -1); higher = more abundant; growth selection in yeast, the domain comes from the species named
Settings: Bos taurus

Abundance fitness of substitutions, site by site:
L43: I -0.012, T -0.07, Q 0.028, R -0.077, N -0.094, A 0.013, D -0.119, V 0.057, W -0.035, P -0.032
E55: D 0.033, K -0.047, W 0.011, G 0.02, V -0.012, S -0.024, F 0.055, M 0.004, I -0.035, H 0.005, Y 0.058, P 0.012, C -0.014, Q 0.031, A -0.045, T 0.005, L 0.04, R 0.001
L57: E -0.044, D 0.081, Q 0.021, W 0.032, I 0.156, G -0.117, N -0.042, H -0.031, C 0.024, R -0.015, M 0.054, S 0.013, F -0.014, A 0.079, Y 0.03, P -0.012, K -0.071
S42: K 0.061, T 0.084, Y -0.047, N -0.009, A -0.011, W -0.098, I -0.035, G -0.023, V -0.058, C -0.074, E 0.116, R -0.056, P 0.008, H -0.087, D -0.046, F -0.049, M -0.07
L50: F -0.026, N -0.094, Y 0.024, T -0.013, A -0.044, P -0.059, Q -0.028, V 0.082, S -0.034, K -0.001, D -0.068, R -0.044, I 0.009, E 0.007, M -0.01, C 0.042, G -0.078
K45: V -0.029, W -0.012, P 0.003, D 0.07, Q 0.042, Y -0.062, N -0.022, H 0.003, A -0.442, T -0.005, L -0.018, R 0.002, C -0.066, M 0.002, E 0.005
P41: Y -0.037, E -0.191, F -0.019, M -0.091, N -0.06, K 0.017, W -0.115, A 0.079, V -0.129, L -0.072, Q 0.025, S 0.055, H 0.066, C -0.159, G 0.002, T 0.001, R -0.059, D -0.021
S48: W -0.048, K 0.055, D -0.138, V -0.032, L -0.01, Q 0.086, I 0.005, P 0.015, G -0.042, A 0, C -0.156, E 0.042, T -0.029, M -0.056, F -0.062, Y 0.016, H -0.023, R 0.038
G46: T 0.007, L 0.02, I 0, D 0.028, E -0.025, C -0.023, Y 0.011, A 0.042, K -0.001, F -0.005, S -0.017, P -0.041, N 0.037, M 0.053, W -0.087, H 0.039, R -0.008, Q -0.008
E52: V -0.024, L -0.001, S -0.009, W -0.084, N -0.002, D -0.056, Y -0.108, G 0.026, P -0.037, T 0.064, H 0.04, R -0.046, K 0.022, M -0.031, F -0.068, I -0.042, A -0.005, Q -0.023, C -0.122

Reference: the Human Domainome abundance scans (Beltran et al. 2025)
